Measurements reported in patent US20210130436A1 (published 2021).

Experiments:
[1] = molecular target: T1, human CTLA-4 (CTLA4), full-length, expressed on the surface of CHO cells (human, UniProt P16410 36-223); test: flow cytometry, CHO cells stably expressing human CTLA-4, 33.3 nM Fc fusion, PE anti-human Fc
T1 construct: also called huCTLA4

[2] = molecular target: T2, human PD-L1 (CD274), full-length, expressed on the surface of CHO cells (human, UniProt Q9NZQ7 19-290); test: flow cytometry; MFI on PD-L1 CHO cells over MFI on Jurkat cells (CD28)
T2 construct: also called huPD-L1; B7-H1

[3] = molecular target: T2, human PD-L1 (CD274), full-length, …; test: flow cytometry, CHO cells stably expressing human PD-L1, 33.3 nM Fc fusion, PE anti-human Fc
[4] = molecular target: T2, human PD-L1 (CD274), full-length, …; test: flow cytometry on PD-L1 CHO cells; MFI against WT CD80 ECD-Fc (R&D)
[5] = molecular target: T3, human CD28, endogenously expressed on Jurkat/IL2 reporter cells (human, UniProt P10747 19-220); test: flow cytometry on Jurkat cells (CD28); MFI against WT CD80 ECD-Fc (R&D)
T3 construct: This is the endogenous CD28 of Jurkat cells

[6] = molecular target: T1, human CTLA-4 (CTLA4), full-length, …; test: flow cytometry on CTLA-4 CHO cells; MFI against WT CD80 ECD-Fc (R&D)
[7] = molecular target: T3, human CD28, endogenously expressed on …; test: flow cytometry, Jurkat/IL2 reporter cells (endogenous CD28), 33.3 nM Fc fusion, PE anti-human Fc

T2 sequence (Q9NZQ7 19-290): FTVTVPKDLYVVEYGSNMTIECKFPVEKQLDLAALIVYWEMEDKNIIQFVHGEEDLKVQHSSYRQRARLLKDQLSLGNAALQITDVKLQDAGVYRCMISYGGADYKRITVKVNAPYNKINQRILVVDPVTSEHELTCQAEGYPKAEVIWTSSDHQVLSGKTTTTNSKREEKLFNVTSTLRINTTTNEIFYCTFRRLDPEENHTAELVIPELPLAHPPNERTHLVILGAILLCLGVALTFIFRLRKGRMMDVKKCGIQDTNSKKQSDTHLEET
T1 sequence (P16410 36-223): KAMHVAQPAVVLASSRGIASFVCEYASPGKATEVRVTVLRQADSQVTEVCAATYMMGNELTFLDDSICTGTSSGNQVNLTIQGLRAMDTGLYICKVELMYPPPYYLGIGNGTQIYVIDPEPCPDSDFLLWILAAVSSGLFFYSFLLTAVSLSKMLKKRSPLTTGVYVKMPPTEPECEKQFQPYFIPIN

B1: variant CD80 IgV-Fc E35D/D46E/M47V/L97Q (Fc fusion, not shown: a dimerising Fc or GST)
chain: VIHVTKEVKEVATLSCGHNVSVEELAQTRIYWQKDKKMVLTMMSGEVNIWPEYKNRTIFDITNNLSIVILALRPSDEGTYECVVLKYEKDAFKREHQAEVTLSVKAD
[1]
  MFI at 33.3 nM: 305000 MFI
[2]
  Ratio of PDL1:CD28: 52 ratio
[3]
  MFI at 33.3 nM: 19500 MFI
[4]
  Fold change to WT: 2.45 fold
[5]
  Fold change to WT: 0.05 fold
[6]
  Fold change to WT CD80: 1.71 fold
[7]
  MFI at 33.3 nM: 371 MFI

B2: variant CD80 IgV-Fc Q33L/E35D/M47L/A71G/F92S (Fc fusion, not shown: a dimerising Fc or GST)
chain: VIHVTKEVKEVATLSCGHNVSVEELAQTRIYWLKDKKMVLTMMSGDLNIWPEYKNRTIFDITNNLSIVILGLRPSDEGTYECVVLKYEKDASKREHLAEVTLSVKAD
[1]
  MFI at 33.3 nM: 2110 MFI
[2]
  Ratio of PDL1:CD28: 77 ratio
[3]
  MFI at 33.3 nM: 28000 MFI
[4]
  Fold change to WT: 3.53 fold
[5]
  Fold change to WT: 0.05 fold
[6]
  Fold change to WT CD80: 0.01 fold
[7]
  MFI at 33.3 nM: 366 MFI

B3: variant CD80 IgV-Fc Q33L/E35D/M43I/L85Q/R94W (Fc fusion, not shown: a dimerising Fc or GST)
chain: VIHVTKEVKEVATLSCGHNVSVEELAQTRIYWLKDKKMVLTMISGDMNIWPEYKNRTIFDITNNLSIVILALRPSDEGTYECVVQKYEKDAFKWEHLAEVTLSVKAD
[1]
  MFI at 33.3 nM: 1080 MFI
[2]
  Ratio of PDL1:CD28: 107 ratio
[3]
  MFI at 33.3 nM: 29000 MFI
[4]
  Fold change to WT: 3.65 fold
[5]
  Fold change to WT: 0.04 fold
[6]
  Fold change to WT CD80: 0.01 fold
[7]
  MFI at 33.3 nM: 272 MFI

B4: variant CD80 IgV-Fc E35D/M47V/A71G/L85M/L97Q (Fc fusion, not shown: a dimerising Fc or GST)
chain: VIHVTKEVKEVATLSCGHNVSVEELAQTRIYWQKDKKMVLTMMSGDVNIWPEYKNRTIFDITNNLSIVILGLRPSDEGTYECVVMKYEKDAFKREHQAEVTLSVKAD
[1]
  MFI at 33.3 nM: 239000 MFI
[2]
  Ratio of PDL1:CD28: 182 ratio
[3]
  MFI at 33.3 nM: 61700 MFI
[4]
  Fold change to WT: 7.77 fold
[5]
  Fold change to WT: 0.04 fold
[6]
  Fold change to WT CD80: 1.34 fold
[7]
  MFI at 33.3 nM: 339 MFI

B5: variant CD80 IgV-Fc H18Y/E35D/V68M/L97Q (Fc fusion, not shown: a dimerising Fc or GST)
chain: VIHVTKEVKEVATLSCGYNVSVEELAQTRIYWQKDKKMVLTMMSGDMNIWPEYKNRTIFDITNNLSIMILALRPSDEGTYECVVLKYEKDAFKREHQAEVTLSVKAD
[1]
  MFI at 33.3 nM: 173000 MFI
[2]
  Ratio of PDL1:CD28: 407 ratio
[3]
  MFI at 33.3 nM: 122000 MFI
[4]
  Fold change to WT: 15.3 fold
[5]
  Fold change to WT: 0.04 fold
[6]
  Fold change to WT CD80: 0.97 fold
[7]
  MFI at 33.3 nM: 299 MFI

B6: variant CD80 IgV-Fc E35D/M47V/T62A/A71G/V83A/Y87H/L97M (Fc fusion, not shown: a dimerising Fc or GST)
chain: VIHVTKEVKEVATLSCGHNVSVEELAQTRIYWQKDKKMVLTMMSGDVNIWPEYKNRTIFDIANNLSIVILGLRPSDEGTYECAVLKHEKDAFKREHMAEVTLSVKAD
[1]
  MFI at 33.3 nM: 18100 MFI
[2]
  Ratio of PDL1:CD28: 255 ratio
[3]
  MFI at 33.3 nM: 77500 MFI
[4]
  Fold change to WT: 9.76 fold
[5]
  Fold change to WT: 0.04 fold
[6]
  Fold change to WT CD80: 0.1 fold
[7]
  MFI at 33.3 nM: 305 MFI

B7: variant CD80 IgV-Fc Q33L/E35D/M43V/M47I/A71G (Fc fusion, not shown: a dimerising Fc or GST)
chain: VIHVTKEVKEVATLSCGHNVSVEELAQTRIYWLKDKKMVLTMVSGDINIWPEYKNRTIFDITNNLSIVILGLRPSDEGTYECVVLKYEKDAFKREHLAEVTLSVKAD
[1]
  MFI at 33.3 nM: 14000 MFI
[2]
  Ratio of PDL1:CD28: 275 ratio
[3]
  MFI at 33.3 nM: 78000 MFI
[4]
  Fold change to WT: 9.82 fold
[5]
  Fold change to WT: 0.04 fold
[6]
  Fold change to WT CD80: 0.08 fold
[7]
  MFI at 33.3 nM: 284 MFI

B8: variant CD80 IgV-Fc H18Y/Y31H/E35D/M47V/A71G/L85Q (Fc fusion, not shown: a dimerising Fc or GST)
chain: VIHVTKEVKEVATLSCGYNVSVEELAQTRIHWQKDKKMVLTMMSGDVNIWPEYKNRTIFDITNNLSIVILGLRPSDEGTYECVVQKYEKDAFKREHLAEVTLSVKAD
[1]
  MFI at 33.3 nM: 3840 MFI
[2]
  Ratio of PDL1:CD28: 285 ratio
[3]
  MFI at 33.3 nM: 76400 MFI
[4]
  Fold change to WT: 9.61 fold
[5]
  Fold change to WT: 0.04 fold
[6]
  Fold change to WT CD80: 0.02 fold
[7]
  MFI at 33.3 nM: 268 MFI
